The source of these data is paper PMC3587646, “Structural Characterization of a Recombinant Fusion Protein by Instrumental Analysis and Molecular Modeling” (PLoS ONE, 2013).

This test concerns the target VEGF-A (UniProt P15692 1-395). Briefly: SPR; unpublished data of the authors; format and conditions not told. The settings on record: both partners purified.

B1: Conbercept (Fc fusion)
chain: GRPFVEMYSEIPEIIHMTEGRELVIPCRVTSPNITVTLKKFPLDTLIPDGKRIIWDSRKGFIISNATYKEIGLLTCEATVNGHLYKTNYLTHRQTNTIIDVVLSPSHGIELSVGEKLVLNCTARTELNVGIDFNWEYPSSKHQHKKLVNRDLKTQSGSEMKKFLSTLTIDGVTRSDQGLYTCAASSGLMTKKNSTFVRVHEKPFVAFGSGMESLVEATVGERVRIPAKYLGYPPPEIKWYKNGIPLESNHTIKAGHVLTIMEVSERDTGNYTVILTNPISKEKQSHVVSLVVYVPP
modifications: seven N-glycosylation sites, all occupied (the N in the tryptic peptides 29-39 VTSPNITVTLK, 60-69 GFIISNATYK, 117-124 LVLNCTAR, 193-198 NSTFVR, 242-253 NGIPLESNHTIK, 267-281 DTGNYTVILTNPISK, 372-380 …); two inter-chain disulfide bonds at the Fc hinge
A word on the Kd: it is the free concentration of one partner at which half of the binding sites on the other are occupied at equilibrium, for simple one-to-one binding. Regarding B1, binding was characterised by a dissociation constant (Kd) of 429 pM.
